The source of these data is article PMC12724367 (Applied and Environmental Microbiology, 2025).

In data set [1] the target is T1, PdG-D-LDH (Nocardiopsis eucommiae, UniProt A0A975LBX7).
T1 construct: gene KGD82_12890; N-terminal His6 tag (pET15b), codon-optimised synthetic gene, E. coli Tuner; no tag cleavage told; homodimer (97 kDa) fraction
The data set can be described thus: product inhibition, DCIP reduction assay. Format: biochemical.

Data set [2] addresses T1, PdG-D-LDH. The data set can be described thus: X-ray crystal structure of complex (soak). The class given is binding. The following applies: 20 mM D-lactate soaked 10 min; active site, coordinated to Fe(II).
The target of data set [3] is T1, PdG-D-LDH. The data set can be described thus: X-ray crystal structure; HPLC of released flavin. The class given is binding. The following applies: non-covalent, active site; co-purified.
Substrate in data set [4]: C[C@@H](O)C(=O)O
The data set can be described thus: purified protein. Particulars: 0.075 mM DCIP as electron acceptor, 100 mM glycine-NaOH, pH 9, 25 °C.

Substrate in data set [5]: C[C@H](O)C(=O)O
The data set can be described thus: purified protein. Particulars: 0.075 mM DCIP as electron acceptor, 100 mM glycine-NaOH, pH 9, 25 °C.

Substrate in data set [6]: O=C1C=C(S(=O)(=O)O)c2ccccc2C1=O
The data set can be described thus: apparent steady-state kinetics, absorbance. The following applies: electron acceptor, 20 mM sodium D-lactate, 100 mM phosphate, pH 7.5, 25 °C. Format: biochemical, Nocardiopsis eucommiae. The text has this:
apparent steady-state kinetics, absorbance on PdG-D-LDH

Substrate in data set [7]: O=C1C=CC(=O)C=C1
The data set can be described thus: purified protein. The class given is biochemical, Nocardiopsis eucommiae. Particulars: electron acceptor, 20 mM sodium D-lactate, 100 mM phosphate, pH 7.5, 25 °C.

Molecule `CC(=O)C(=O)O` [pyruvate] came in with a 50% inhibitory concentration (IC50) on PdG-D-LDH [1] of 53 mM.
As for `C[C@@H](O)C(=O)O` [D-lactate], at PdG-D-LDH [2], the “X-ray crystal structure of complex (soak)” value was “a metal ion and the substrate D-lactate (in PdG-D-LDH-lactate complex) are clearly defined”.
As for `Cc1cc2nc3c(=O)[nH]c(=O)nc-3n(C[C@H](O)[C@H](O)[C@H](O)COP(=O)(O)OP(=O)(O)OC[C@H]3O[C@@H](n4cnc5c(N)ncnc54)[C@H](O)[C@@H]3O)c2cc1C` [FAD], at PdG-D-LDH [3], the “X-ray crystal structure; HPLC of released flavin” value is “The structure contains a non-covalently bound FAD at the active site”.

B1: PdG-D-LDH (Nocardiopsis eucommiae) (protein)
chain: MPGVVEELVAAIGTEQVVTDPAVMEGYSHDEAEWAPYGAPAAVVRPRDTADVAAVVRVCARSGVAVVGRGAGTGLSGAANSGRGWVVVSFERMNRVLEVDTVQQTATVQPGVVNDDLRARVAQDGLWYPPDPASAPWSTIGGNVATNAGGLCCVKYGVTRDYVLGMEAVVGTGEVVRLGRTTAKGVTGYDLAGLMVGSEGTLGLVTEVTLRLVPLRRGVEHTVVGYFDSLTDAGRAVAAVSAAGIVPSALELIDRFCLQAVDEWKNMGLSAEGEVLLLARSDLPGASGQEEADRILECFEQEKAVYAVRSTDKEEAEALFQARRLAYPALERLGPLLTEDVCVPKARVPHMLEAIEAAGERFDTRIGNIAHAGDGNLHPLFIVPAGDEEAKRRAKQAFEVIVDEALAVGGTVTGEHGVGLLKMRGAADELGPHVLAMHRAVKGALDPEGIFNPGKVFALEEA
notes: N-terminal His6 tag (pET15b), codon-optimised synthetic gene, E. coli Tuner; no tag cleavage told; homodimer (97 kDa) fraction
For B1, the Km in “purified protein [4]” was 1000 ± 100 µM; in “purified protein [5]” it was 59000 ± 5000 µM; in data set [6], 80 ± 10 µM; in “purified protein [7]”, 20 ± 10 µM. Also, the kcat worked out at 8.2 s⁻¹ in the data set “purified protein [4]”, 4.7 s⁻¹ in the data set “purified protein [5]”, 0.95 ± 0.04 s⁻¹ in data set [6] and 1.8 ± 0.1 s⁻¹ in “purified protein [7]”. Also, the kcat/Km came out at 8000 M⁻¹ s⁻¹ in the data set “purified protein [4]”, 79 M⁻¹ s⁻¹ in “purified protein [5]”, 12000 ± 2000 M⁻¹ s⁻¹ in data set [6] and 80000 ± 30000 M⁻¹ s⁻¹ in “purified protein [7]”.

In general, IC50 refers to the concentration needed to halve the response being measured. One may read the Km as the substrate concentration at which the rate is half of its maximum. As usually defined, the kcat is the number of substrate molecules converted per active site and unit of time at saturation. For orientation: kcat/Km means the turnover number divided by the Michaelis constant.
